This assay concerns the target semi-synthetic pS129-α-synuclein (Proteos Inc.) (Homo sapiens (Human)) (UniProt P37840). Description: sandwich ECLIA, freshly prepared pS129-α-syn standard at 100 ng/mL.

Values joined by “and” are separate entries in the source; they are usually repeats but may differ in a detail not shown here. Equal entries are not always repeated.

On to “anti-pS129-α-syn monoclonal antibody EP1536Y”, for which the ECLIA signal at 100 ng/mL standard is 500000 and 1.1e+06.

Source of the values: patent US20260219283A1.
